Measured values reported in publication PMC4101993 (Nature structural & molecular biology, 2014).

Target: the molecule itself
Test: SEC-MALS

B1: Purified EttA (gel filtration with static light scattering) (natural protein, E. coli)
chain: MAQFVYTMHRVGKVVPPKRHILKNISLSFFPGAKIGVLGLNGAGKSTLLRIMAGIDKDIEGEARPQPDIKIGYLPQEPQLNPEHTVRESIEEAVSEVVNALKRLDEVYALYADPDADFDKLAAEQGRLEEIIQAHDGHNLNVQLERAADALRLPDWDAKIANLSGGERRRVALCRLLLEKPDMLLLDEPTNHLDAESVAWLERFLHDFEGTVVAITHDRYFLDNVAGWILELDRGEGIPWEGNYSSWLEQKDQRLAQEASQEAARRKSIEKELEWVRQGTKGRQSKGKARLARFEELNSTEYQKRNETNELFIPPGPRLGDKVLEVSNLRKSYGDRLLIDDLSFSIPKGAIVGIIGPNGAGKSTLFRMISGQEQPDSGTITLGETVKLASVDQFRDSMDNSKTVWEEVSGGLDIMKIGNTEMPSRAYVGRFNFKGVDQGKRVGELSGGERGRLHLAKLLQVGGNMLLLDEPTNDLDIETLRALENALLEFPGCAMVISHDRWFLDRIATHILDYQDEGKVEFFEGNFTEYEEYKKRTLGADALEPKRIKYKRIAK
stoichiometry N: 2
